Data taken from patent US20250355001A1, “METHOD FOR DETECTING A TAU PROTEIN FRAGMENT IN A SAMPLE” (GTINVENT LIMITED, priority 2022, published 2025).

Columns and labels:
[1] = molecular target: dGAE aggregates (Homo sapiens, UniProt P10636); test: Sandwich ELISA on SDS/Triton X-100 treated dGAE aggregates; type: binding; set-up: key to LoD, 423 mAb capture, Untreated dGAE agg. / LoD, Direct immobilisation of dGAE aggregates, Untreated dGAE agg.: NB denotes no binding; settings: untreated aggregates
Sequence of dGAE aggregates (P10636 614-708): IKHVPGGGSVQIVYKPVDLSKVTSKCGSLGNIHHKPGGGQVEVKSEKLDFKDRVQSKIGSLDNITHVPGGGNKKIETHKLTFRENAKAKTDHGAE
Description: We have noticed Sodium dodecyl sulphate (SDS) can break apart dGA/dGAE aggregates and separate them into smaller fragments by performing an SDS-PAGE. This has been replicated and tested using an ELISA as described below.
For aggregation, 1000 μL 100 μM dGAE+10 μL 10 mM DTT was added to a ‘LoBind’ microfuge tubes and agitated at 700 RPM/37° C. for 24 hours. Resulting sample centrifuged at 17,000×g/4° C. for 60 min and supernatant discarded to remove left over monomer. Pellet resuspended in half the original volume for future experiments and hereafter referred to as ‘aggregates’. 1 μl of aggregates was added to 1 ml of PBS and SDS was added to a final concentration of 1% (w/v). This was left to incubate on lab bench for 1 h with gentle agitation every 15 minutes. In order to neutralize the SDS effect on ELISA, Triton X-100 added to a final concentration of 3% (v/v) and mixed gently by pipetting to prevent any bubble formation. 200 μl added of this mix was to the first well of an ELISA plate coated with 1 μg/ml S1D12 mAb and blocked with 2% MPBS. Similarly aggregates treated with only SDS or Triton X-100, untreated aggregates, dGAE monomers treated with only SDS or SDS+Titon X-100 were also added to designated wells as controls. All samples were then double diluted across the plate in final volumes of 100 μl. The final column was left with no protein to act as a blank. This was allowed to stand at room temperature for 1 hour followed by the addition of detection scAb-S1G2 at 10 μg/ml. Anti-HuCk HRP labelled secondary antibody was added as described previously and ELISA data generated was represented using the graph below.

[2] = molecular target: T1, hT40 (Homo sapiens, UniProt P10636); test: Sandwich ELISA limits of detection (LoD) of antibody pairs; type: binding; settings: S1D12 mAb capture; hT40
T1 construct: Full length tau (hT40)
T1 sequence (P10636 1-441 isoform P10636-8): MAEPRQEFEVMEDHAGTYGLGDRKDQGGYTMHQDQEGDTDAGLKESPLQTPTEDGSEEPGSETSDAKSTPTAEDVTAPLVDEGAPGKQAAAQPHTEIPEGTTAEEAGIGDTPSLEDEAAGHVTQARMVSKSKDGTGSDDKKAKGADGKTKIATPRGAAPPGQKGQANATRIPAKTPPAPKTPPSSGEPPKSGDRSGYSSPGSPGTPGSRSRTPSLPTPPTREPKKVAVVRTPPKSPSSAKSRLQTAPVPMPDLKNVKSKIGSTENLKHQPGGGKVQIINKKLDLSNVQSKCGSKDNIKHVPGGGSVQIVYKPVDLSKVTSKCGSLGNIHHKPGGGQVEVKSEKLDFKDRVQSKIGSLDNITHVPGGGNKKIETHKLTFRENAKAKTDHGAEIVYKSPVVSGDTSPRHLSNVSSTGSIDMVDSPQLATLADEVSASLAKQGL
Source text: The diverse panel of high affinity anti-tau antibodies (scAb and mAb formats) were paired in various combinations and tested in a Sandwich (or Capture) ELISA format to calculate their limits of detection (LoD) and their ability to differentiate between different tau species. Biologically, tau exists in 6 different isoforms and is subjected to numerous post translational modifications, some of them playing a significant role in the progression of neurodegeneration.
For Sandwich ELISA using colourimetric detection, 96 well Maxisorp plates were coated with the capture antibody S1D12 mAb at 1 μg/ml for 1 h at RT followed by blocking with 2% MPBS as normal. Full length tau (hT40), at 1 μg/ml starting concentration was added to designated wells and double diluted across rest of the plates and left to incubate at R/T for 1 h. A series of detection scAbs with varying epitope recognition properties were added at 10 μg/ml to designated wells (FIG. 22). For colourimetric detection HRP conjugated anti-HuCk secondary antibody was used and the resulting immunoreaction was developed and absorbance at 450 nm measured as described previously. Cut-off point for a positive binding event was an absorbance value of 0.3 following background subtraction. In order to enhance the assay sensitivity, a chemiluminescent detection method was adopted where 50 μL SuperSignal ELISA Femto Substrate (Thermo Scientific) was added to each well following incubation with anti-HuCK HRP antibody and subsequent washing. The luminescence was read using Clariostar Plus microplate reader. A further modification to this protocol was done where various detection scAbs were directly conjugated with HRP and detected using chemiluminescent protocol as before. The lowest levels of detection achieved using different detection scAbs and a comparison of colourimetric and chemiluminescent methods of detection are shown in Table 28
Similarly, a sandwich ELISA format was set up using S1G2 mAb at 1 μg/ml as the capture antibody and HRP conjugated S1D12 mAb for detection. The assay was conducted using chemiluminescent protocol described above.

B1: S1G2: sheep-derived anti-tau core clone; scFv SEQ ID NO: 81, VH 455, VL 456 (protein)
scFv: QVQLQESGPSLVKPSQTLSLTCTVSGFSLTSNSVGWVRQAPGKAPEWVAGIDTDGEEGYNPALNSRLSITRDTSKSQVSLSLSSVTSEDTAVYYCGRSYRADGLAYGYVQAIDYWGPGLLVTVSSEGKSSGASGESKVDDQAVVTQPSSVSGSLGQRVSITCSGSFIGISSVGWFQQLPGSGLRTIIVASDGRPSGVPDRFSMSKSGNTATLTISSLQAEDEADYFCGSSDRTPYTGVFGSGTRLTVLG
modifications: S1G2 amino acid sequence
LoD, Direct immobilisation of dGAE aggregates, Untreated dGAE agg. ([1]; direct immobilisation): NB | LoD, 423 mAb capture, Untreated dGAE agg. ([1]; sandwich ELISA, 423 mAb capture): NB | LoD, S1D12 mAb capture, Untreated dGAE agg. ([1]; sandwich ELISA, S1D12 mAb capture): 250 ng/mL | LoD (ng/ml) direct HRP conjugation of detection scAb & chemiluminescence [2]: 0.04 ng/mL
